In patent US7078507 (US Dept. of Health and Human Services, dated 2006):
Changes are numbered by the printed parent chain.

T1: erythrocytes (red blood cells) carrying the EBA-175 receptor glycophorin A (human, UniProt P02724 20-150, sialic acid residues (removed by neuraminidase treatment in FIG. 12))
T1 construct: whole, on cells; The assays used whole erythrocytes; also called RBC; human RBCs
T1 sequence: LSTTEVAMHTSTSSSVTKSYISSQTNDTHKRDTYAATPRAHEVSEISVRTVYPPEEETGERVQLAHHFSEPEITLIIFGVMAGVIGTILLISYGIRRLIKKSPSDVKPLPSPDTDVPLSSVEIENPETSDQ

B1: Pichia pastoris-expressed recombinant EBA-175 region II (RII) protein, N-glycosylated (ligand)
chain: GRNTSSNNEVLSNCREKRKGMKWDCKKKNDRSNYVCIPDRRIQLCIVNLSIIKTYTKETMKDHFIEASKKESQLLLKKNDNKYNSKFCNDLKNSFLDYGHLAMGNDMDFGGYSTKAENKIQEVFKGAHGEISEHKIKNFRKKWWNEFREKLWEAMLSEHKNNINNCKNIPQEELQITQWIKEWHGEFLLERDNRSKLPKSKCKNNTLYEACEKECIDPCMKYRDWIIRSKFEWHTLSKEYETQKVPKENAENYLIKISENKNDAKVSLLLNNCDAEYSKYCDCKHTTTLVKSVLNGNDNTIKEKREHIDLDDFSKFGCDKNSVDTNTKVWECKKPYKLSTKDVCVPPRRQELCLGNIDRIYDKNLLMIKEHILAIAIYESRILKRKYKNKDDKEVCKIINKTFADIRDIIGGTDYWNDLSNRKLVGKINTNSNYVHRNKQNDKLFRDEWWKVIKKDVWNVISWVFKDKTVCKEDDIENIPQFFRWFSEWGDDYCQDKTKMIETLKVECKEKPCEDDNCKRKCNSYKEWISKKKEEYNKQAKQYQEYQKGNNYKMYSEFKSIKPEVYLKKYSEKCSNLNFEDEFKEELHSDYKNKCTMCPEVKDVPISIIRNNEQTS
modifications: about 1 of 5 putative N-glycosylation sites occupied (Man14-16GlcNAc2) when expressed in P. pastoris
notes: also called EBA-175 RII; P. pastoris derived EBA-175 RII protein
B2: Non-N-glycosylated EBA-175 RII protein (RII-N-Gly-) expressed in Pichia pastoris (ligand)
chain: B1 chain with N3Q, S50A, S195A, T206A, N400Q
notes: also called mutated RII protein; non-N-glycosylated RII

Legend:
[1] = target: T1, erythrocytes (red blood cells) carrying …; experiment: erythrocyte binding assay
[2] = target: T1, erythrocytes (red blood cells) carrying …; experiment: erythrocyte binding assay with human RBCs with or without neuraminidase treatment, immunoblot read-out

Row | Binder | binding result [1] | binding result [2]
1 | B1 | binds | –
2 | B2 | – | binds
